Test results: US7387779B2, “Anti-angiogenic proteins and fragments and methods of use thereof” (Beth Israel Deaconess Medical Center, priority 1998, dated 2008)

Legend:
[1] = tested on: WM-164 cells; assay: Melanoma cell proliferation, methylene blue staining; format: cell-based, human; settings: for Relative Cell No. (%) WM-164: 3% FCS, 50 μg/ml recombinant protein
Procedure: In the methylene-blue staining method, 7000 cells were plated into each well of a 96-well plate, and treated as described above. Cells were then counted using the method of Oliver et al. (1989, J. Cell. Sci. 92:513-8). After 48 hours of treatment, all wells were washed with 100 μl of PBS, and the cells fixed with 10% formalin in neutral-buffered saline (Sigma Chemical Co., St. Louis, Mo., USA). The cells were then stained with 1% methylene blue (Sigma) in 0.01M borate buffer, pH 8.5. Wells were washed with 0.01M borate buffer, and the methylene blue extracted from the cells with 0.1N HCl/ethanol, and the absorbance measured in a microplate reader (Bio-Rad, Hercules, Calif., USA) at 655 nm. Polymyxin B (Sigma) at a final concentration of 5 μg/ml was used to inactivate endotoxin (Liu, S. et al., 1997, Clin. Biochem. 30:455-63).
Endothelial cell proliferation was performed by ^3H-thymidine incorporation or methylene blue staining as described above in Example 25. C-PAE cells (passages 2-4) were grown to confluence and kept contact inhibited for 48 hours. 786-O, PC-3 and WM-164 cells were used as non-endothelial controls, and were cultured as described in Example 25, above. HPE (human primary prostate epithelial cells) were cultured in keratinocyte-SFM supplemented with bovine pituitary and recombinant human EGF (Life Technologies/Gibco BRL, Gaithersburg, Md., USA). The melanoma cell line WM-164 was obtained from Dr. Meenhard Herlyn at the Wistar Institute (Philadelphia, Pa., USA), and was cultivated in 78% MCDB-153 medium, 10% L-15 medium, 10% tryptose phosphate broth, 2% FBS, and 50 units/ml insulin, as described by Herlyn et al. (1990, Adv. Cancer Res. 54:213-34).
Proliferation of endothelial cells (C-PAE cells) and WM-164 melanoma cells was assayed by methylene blue staining, as described above in Examples 25 and 34. The results are shown in FIGS. 33A and 33B, which are a pair of graphs showing the effect of increasing concentration (x-axis) of Tumstatin, Tum-1, Tum-2, Tum-3 and Tum-4 on the relative number (y-axis) of C-PAE cells (FIG. 33A) and WM-164 cells (FIG. 33B). […] Tum-4, however, did have anti-proliferative activity in this cell line. […] Only Tum-4 inhibited WM-164 melanoma cells.

[2] = tested on: C-PAE cells; assay: Endothelial cell proliferation, 3H-thymidine incorporation; format: cell-based, bovine
Procedure: C-PAE cells were grown to confluence in DMEM with 10% fetal calf serum (FCS) and kept contact inhibited for 48 hours. Control cells were 786-O (renal carcinoma) cells, PC-3 cells, HPEC cells, and A-498 (renal carcinoma) cells. Cells were harvested with trypsinization (Life Technologies/Gibco BRL, Gaithersburg, Md., USA) at 37° C. for five minutes. A suspension of 12,500 cells in DMEM with 1% FCS was added to each well of a 24-well plate coated with 10 μg/ml fibronectin. The cells were incubated for 24 hours at 37° C. with 5% CO2 and 95% humidity. […] Unstimulated controls received no bFGF. Cells were treated with concentrations of Arresten or endostatin ranging from 0.01 to 50 μg/ml. All wells received 1 μCurie of ^3H-thymidine at the time of treatment. After 24 hours, medium was removed and the wells were washed with PBS. Cells were extracted with 1N NaOH and added to a scintillation vial containing 4 ml of ScintiVerse II (Fisher Scientific, Pittsburgh, Pa., USA) solution. Thymidine incorporation was measured using a scintillation counter. The results are shown in FIGS. 3A and 3B, which are a pair of graphs showing incorporation of ^3H-thymidine into C-PAE cells treated with varying amounts of Arresten (FIG. 3A) or endostatin (FIG. 3B). Arresten appeared to inhibit thymidine incorporation in C-PAE as well as did endostatin. Behavior of control cells treated with Arresten and endostatin is also shown in FIG. 4A, 4B, 4C, and 4D, with Arresten having little effect on 786-O cells (FIG. 4A), PC-3 cells (FIG. 4B), or HPEC cells (FIG. 4C). Endostatin had little effect on A-498 cells (FIG. 4D). All groups in FIGS. 3 and 4 represent triplicate samples.
Bovine calf aortic endothelial (C-PAE) cells were grown to confluence in DMEM with 10% fetal calf serum (FCS) and kept contact inhibited for 48 hours. […] Radioactivity was extracted with 1N NaOH and added to a scintillation vial containing 4 ml of ScintiVerse II (Fisher Scientific, Pittsburgh, Pa., USA) solution. Thymidine incorporation was measured using a scintillation counter. […]

B1: Tum-1: residues 54 to 244 of Tumstatin, lacking the N-terminal 53 amino acids (SEQ ID NO:22) (protein)
chain: QRAHGQDLGTLGSCLQRFTTMPFLFCNVNDVCNFASRNDYSYWLSTPALMPMNMAPITGRALEPYISRCTVCEGPAIAIAVHSQTTDIPPCPHGWISLWKGFSFIMFTSAGSEGTGQALASPGSCLEEFRASPFLECHGRGTCNYYSNSYSFWLASLNPERMFRKPIPSTVKAGELEKIISRCQVCMKKRH
modifications: Tum-1 (Tumstatin N-53) (amino acids 54-244 of SEQ ID NO10)
- effect on proliferation of WM-164 cells [1]: not affected
- Relative Cell No. (%) WM-164 [1]: 100.7 ± 2.7%

B2: Tum-2: residues 1 to 132 of Tumstatin (SEQ ID NO:23) (protein)
chain: GLKGKRGDSGSPATWTTRGFVFTRHSQTTAIPSCPEGTVPLYSGFSFLFVQGNQRAHGQDLGTLGSCLQRFTTMPFLFCNVNDVCNFASRNDYSYWLSTPALMPMNMAPITGRALEPYISRCTVCEGPAIAI
modifications: Tum-2 (amino acids 1-132 of SEQ ID NO10)
- effect on proliferation of WM-164 cells [1]: not affected
- Relative Cell No. (%) WM-164 [1]: 96.2 ± 3.7%

B3: Tumstatin: NC1 domain of the α3 chain of type IV collagen, residues 1-244 (SEQ ID NO:10) (protein, listed as Homo sapiens)
chain: GLKGKRGDSGSPATWTTRGFVFTRHSQTTAIPSCPEGTVPLYSGFSFLFVQGNQRAHGQDLGTLGSCLQRFTTMPFLFCNVNDVCNFASRNDYSYWLSTPALMPMNMAPITGRALEPYISRCTVCEGPAIAIAVHSQTTDIPPCPHGWISLWKGFSFIMFTSAGSEGTGQALASPGSCLEEFRASPFLECHGRGTCNYYSNSYSFWLASLNPERMFRKPIPSTVKAGELEKIISRCQVCMKKRH
- effect on proliferation of WM-164 cells [1]: no inhibitory effects
- Relative Cell No. (%) WM-164 [1]: 100.0 ± 2.9%
- ED50, inhibition of 3H-thymidine incorporation ([2]; 20% FCS stimulated): approximately 0.01 mg/ml

B4: Tum-4: residues 181 to 244 of Tumstatin (SEQ ID NO:25) (protein)
chain: EFRASPFLECHGRGTCNYYSNSYSFWLASLNPERMFRKPIPSTVKAGELEKIISRCQVCMKKRH
modifications: Tum-4 (amino acids 181-244 of SEQ ID NO10)
- inhibition of WM-164 melanoma cells ([1]; 50 μg/ml): 46.1%
- Relative Cell No. (%) WM-164 [1]: 52.4 ± 3.4 %

B5: Canstatin: NC1 domain of the α2 chain of Type IV collagen (SEQ ID NO:6) (protein, listed as Homo sapiens)
chain: VSIGYLLVKHSQTDQEPMCPVGMNKLWSGYSLLYFEGQEKAHNQDLGLAGSCLARFSTMPFLYCNPGDVCYYASRNDKSYWLSTTAPLPMMPVAEDEIKPYISRCSVCEAPAIAIAVHSQDVSIPHCPAGWRSLWIGYSFLMHTAAGDEGGGQSLVSPGSCLEDFRATPFIECNGGRGTCHYYANKYSFWLTTIPEQSFQGSPSADTLKAGLIRTHISRCQVCMKNL
- ED50, inhibition of proliferation ([2]; 10% serum-stimulated): approximately 0.5 μg/ml

B6: Tumstatin-44-131: residues 44 to 131 of full-length Tumstatin (SEQ ID NO:33) (protein)
chain: FSFLFVQGNQRAHGQDLGTLGSCLQRFTTMPFLFCNVNDVCNFASRNDYSYWLSTPALMPMNMAPITGRALEPYISRCTVCEGPAIAI
modifications: Tumstatin-45-132 (amino acids 45-132 of SEQ ID NO10)
- effect on proliferation of WM-164 cells [1]: not observed

B7: endostatin: tumor associated angiogenesis inhibitor used as comparator (protein, UniProt P39060 1572-1754, looked up)
Endostatin: HSHRDFQPVLHLVALNSPLSGGMRGIRGADFQCFQQARAVGLAGTFRAFLSSRLQDLYSIVRRADRAAVPIVNLKDELLFPSWEALFSGSEGPLKPGARIFSFDGKDVLRHPTWPQKSVWHGSDPNGRRLTESYCETWRTEAPSATGQASSLLGGRLLGQSAASCHHAYIVLCIENSFMTASK
modifications: Endostatin
- ED50, inhibition of proliferation ([2]; bFGF-stimulated, E. Coli-produced Arresten): 0.75 µg/mL
